Data: US20040229309A1 (KUMAMOTO TECHNOLOGY AND INDUSTRY FOUNDATION, published 2004)

Target: T1, mouse GANP protein (mouse, UniProt Q9WUU9 1-1971)
T1 construct: Endogenous 210-kD protein in lysates, cytoplasmic and nuclear fractions of WEHI-231 cells and in mouse spleen B cells; The deduced polypeptide has 1971 amino acids; It is phosphorylated at serine/threonine in the in vitro kinase reactions; also called GANP antigen; 29-15 Ag
Assay: co-immunoprecipitation from WEHI-231 lysate, Western blot with anti-MCM3; in vitro kinase assay and V8 cleavage mapping

T1 sequence (Q9WUU9 other isoform, or with tags, fused parts or gaps limits assumed): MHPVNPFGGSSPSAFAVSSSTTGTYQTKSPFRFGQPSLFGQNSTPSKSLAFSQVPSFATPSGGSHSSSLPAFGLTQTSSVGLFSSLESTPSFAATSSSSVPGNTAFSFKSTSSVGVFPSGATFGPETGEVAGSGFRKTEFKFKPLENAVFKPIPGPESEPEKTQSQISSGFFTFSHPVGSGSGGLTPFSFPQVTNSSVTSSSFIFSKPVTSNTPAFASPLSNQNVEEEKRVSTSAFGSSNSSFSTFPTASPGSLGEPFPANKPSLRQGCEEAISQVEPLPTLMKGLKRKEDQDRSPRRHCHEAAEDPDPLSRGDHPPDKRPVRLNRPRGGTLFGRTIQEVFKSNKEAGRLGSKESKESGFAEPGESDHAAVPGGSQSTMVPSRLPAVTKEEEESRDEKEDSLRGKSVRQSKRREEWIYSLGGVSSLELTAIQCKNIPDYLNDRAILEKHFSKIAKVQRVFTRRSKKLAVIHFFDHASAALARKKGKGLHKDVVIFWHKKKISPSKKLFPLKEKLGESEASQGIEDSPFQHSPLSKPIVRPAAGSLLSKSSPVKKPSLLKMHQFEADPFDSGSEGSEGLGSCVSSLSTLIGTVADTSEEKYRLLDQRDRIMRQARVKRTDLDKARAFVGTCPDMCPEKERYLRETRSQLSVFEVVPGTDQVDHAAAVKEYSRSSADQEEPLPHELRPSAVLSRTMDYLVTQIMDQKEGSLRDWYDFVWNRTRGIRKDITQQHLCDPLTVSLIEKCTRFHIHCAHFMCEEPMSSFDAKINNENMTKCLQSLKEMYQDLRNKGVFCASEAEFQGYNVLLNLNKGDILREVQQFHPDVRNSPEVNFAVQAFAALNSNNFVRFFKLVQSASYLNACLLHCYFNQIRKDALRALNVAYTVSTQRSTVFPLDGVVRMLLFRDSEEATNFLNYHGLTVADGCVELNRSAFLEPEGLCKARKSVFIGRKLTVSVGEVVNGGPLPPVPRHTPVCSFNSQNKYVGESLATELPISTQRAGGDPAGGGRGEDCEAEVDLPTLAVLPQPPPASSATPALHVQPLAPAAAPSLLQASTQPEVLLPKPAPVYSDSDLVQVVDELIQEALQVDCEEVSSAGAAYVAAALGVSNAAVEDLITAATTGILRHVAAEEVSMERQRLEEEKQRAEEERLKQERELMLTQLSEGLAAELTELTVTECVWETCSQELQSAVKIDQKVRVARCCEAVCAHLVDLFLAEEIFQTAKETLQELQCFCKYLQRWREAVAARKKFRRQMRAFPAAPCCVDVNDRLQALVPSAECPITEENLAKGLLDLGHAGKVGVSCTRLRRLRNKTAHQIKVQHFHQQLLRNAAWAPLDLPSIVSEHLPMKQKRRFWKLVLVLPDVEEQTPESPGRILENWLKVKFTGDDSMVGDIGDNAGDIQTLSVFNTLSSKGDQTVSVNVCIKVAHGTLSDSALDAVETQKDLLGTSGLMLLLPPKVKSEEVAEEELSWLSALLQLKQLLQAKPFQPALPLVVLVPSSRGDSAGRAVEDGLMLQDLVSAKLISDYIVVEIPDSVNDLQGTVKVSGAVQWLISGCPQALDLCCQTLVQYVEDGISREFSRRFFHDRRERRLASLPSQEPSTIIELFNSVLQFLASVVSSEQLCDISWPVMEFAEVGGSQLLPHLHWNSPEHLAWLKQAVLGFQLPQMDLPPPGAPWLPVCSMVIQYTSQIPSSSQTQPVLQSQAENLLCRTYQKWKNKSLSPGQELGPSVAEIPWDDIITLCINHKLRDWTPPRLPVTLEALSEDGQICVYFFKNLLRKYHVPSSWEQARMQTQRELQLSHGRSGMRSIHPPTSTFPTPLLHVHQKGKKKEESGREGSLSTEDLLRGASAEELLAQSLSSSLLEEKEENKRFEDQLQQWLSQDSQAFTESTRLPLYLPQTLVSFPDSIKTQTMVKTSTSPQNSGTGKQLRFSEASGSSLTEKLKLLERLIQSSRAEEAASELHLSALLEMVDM

- binding result: binds
B1: MCM3 protein (other, mouse, UniProt P25206 2-812, looked up)
chain: AGTVVLDDVELREAQRDYLDFLDDEEDQGIYQNKVRELISDNQYRLIVSVNDLRRKNEKRANRLLNNAFEELVAFQRALKDFVASIDATYAKQYEEFYIGLEGSFGSKHVSPRTLTSCFLSCVVCVEGIVTKCSLVRPKVVRSVHYCPATKKTIERRYSDLTTLVAFPSSSVYPTKDEENNPLETEYGLSVYKDHQTITIQEMPEKAPAGQLPRSVDVILDDDLVDKVKPGDRIQVVGTYRCLPGKKGCYTSGTFRTVLIACNVKQMSKDIQPAFSADDIAKIKKFSKTRSKDVFEQLARSLAPSIHGHDYVKKAILCLLLGGVERELENGSHIRGDINILLIGDPSVAKSQLLRYVLCTAPRAIPTTGRGSSGVGLTAAVTTDQETGERRLEAGAMVLADRGVVCIDEFDKMSDMDRTAIHEVMEQGRVTIAKAGIHARLNARCSVLAAANPVYGRYDQYKTPMENIGLQDSLLSRFDLLFIMLDQMDPEQDREISDHVLRMHQYRAPGEQDGDALPLGSSVDILATDDPDFTQDDQQDTRIYEKHDSLLHGTKKKKEKMVSAAFMKKYIHVAKIIKPTLTQESAAYIAEEYSRLRSQDSMSSDTARTSPVTARTLETLIRLATAHAKARMSKTVDLQDAEEAVELVQYAYFKKVLEKEKKRKKASEDESDLEDEEEKSQEDTEQKRKRRKTHAKDGESYDPYDFSEAETQMPQVHTPKTDDSQEKTDDSQETQDSQKVELSEPRLKAFKAALLEVFQEAHEQSVGMLHLTESINRNREEPFSSEEIQACLSRMQDDNQVMVSEGIVFLI
notes: also called MCM3/P1
